The values below come from patent publication EP4663662A1 (Shanghai Qilu Pharmaceutical Research and Development …, dated 2025).

One may read the EC50 as the concentration that produces a half-maximal response.

Assay [1] addresses T1, human BCMA (human, UniProt Q02223 1-184).
T1 construct: On transfected CHOK1 cells; also called Human BCMA-CHOK1 cell line; Human BCMA CHOK1
T1 sequence: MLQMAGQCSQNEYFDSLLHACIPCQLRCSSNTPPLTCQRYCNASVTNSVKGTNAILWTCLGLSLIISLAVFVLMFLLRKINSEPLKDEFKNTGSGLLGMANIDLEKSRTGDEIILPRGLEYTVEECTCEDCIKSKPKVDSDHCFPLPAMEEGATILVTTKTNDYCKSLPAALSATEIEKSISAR
Nature of the assay: flow cytometry, human BCMA-CHOK1 cells. Background: In flow cytometry, cells or beads pass a laser one at a time.

Assay [2] addresses T2, cynomolgus monkey BCMA (cynomolgus monkey, UniProt Q02223 1-184 (human entry)).
T2 construct: On transduced CHOK1 cells; also called cyno-BCMA; Cynomolgus monkey BCMA-CHOK1 cell line
Nature of the assay: flow cytometry, cynomolgus BCMA-CHOK1 cells.

Assay [3] concerns the target T1, human BCMA. Nature of the assay: flow cytometry, human BCMA-CHOK1 cells. The source holds these as a separate data set.
For assay [4], the target named is T2, cynomolgus monkey BCMA. As to the kind of experiment: flow cytometry, cynomolgus BCMA-CHOK1 cells. The source holds these as a separate data set.
The target in assay [5] is T1, human BCMA. Nature of the assay: flow cytometry, human BCMA-CHOK1 cells. The source holds these as a separate data set.
Assay [6] concerns the target T2, cynomolgus monkey BCMA. Nature of the assay: flow cytometry, cynomolgus BCMA-CHOK1 cells. This is another data set of the same source.

Changes are numbered by the printed parent chain. Where two headings read alike, the source gives them in different places.

T2 sequence (Q02223 other isoform, or with tags, fused parts or gaps): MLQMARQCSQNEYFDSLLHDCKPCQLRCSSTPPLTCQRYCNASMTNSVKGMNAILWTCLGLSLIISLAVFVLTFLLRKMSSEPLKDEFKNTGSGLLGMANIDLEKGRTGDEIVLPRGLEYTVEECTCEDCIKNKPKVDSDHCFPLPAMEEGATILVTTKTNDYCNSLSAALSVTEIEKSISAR

B1: 19CH-16 anti-BCMA chimeric antibody derived from mouse hybridoma (antibody, IgG1, V domains shown)
VH: QGQMQQSGAELVKPGTSVKLSCKTSGFTFRSSYISWLQQKPGQSLEWIAWIYAGSGNTDYNQKFTGKAQLTVDTSSSTAYMQFSSLTTEDSAIYYCARHYDPPHYFDYWGQGTTLTVSS
VL: QIVLTQSPAIMSASPGEKVTMTCSASSGVSHMHWYQQKSGTSPKRWIYDTSKLTSGVPTRFSGTGSGTSYSLSISSMEAEDAATYYCQQWSRNPWTFGGGTKLEIK
Consider B1, for which the results for the EC50 with human BCMA [1] and with cynomolgus monkey BCMA [2] were 0.885 nM and 1.22 nM, respectively.

B2: 19CH-16H2L2 humanized anti-BCMA antibody (antibody, IgG1, V domains shown)
VH: QVQLVQSGAEVKKPGASVKVSCKASGFTFRSSYISWVRQAPGQGLEWIAWIYAGSGNTDYNQKFTGRVTMTVDTSTSTVYMELSSLRSEDTAVYYCARHYDPPHYFDYWGQGTLVTVSS
VL: DIQLTQSPSSLSASVGDRVTITCSASSGVSHMHWYQQKPGKAPKRWIYDTSKLTSGVPSRFSGSGSGTDFTLTISSLQPEDFATYYCQQWSRNPWTFGQGTKVEIK
On to B2, for which the EC50 stood at 2.13 nM with human BCMA [3] and 4.82 nM with cynomolgus monkey BCMA [4].

B3: 19CH-16H2L2-NA humanized anti-BCMA antibody variant (antibody, IgG1, V domains shown)
VH: B2 VH with T58A
VL: B2 VL
Consider B3, for which the values for the EC50 in the assay with human BCMA [5] and in the assay with cynomolgus monkey BCMA [6] were 2.15 nM and 5.86 nM, respectively.
